Laboratory results from patent US12630600B2 (MEDIMMUNE LIMITED, priority 2022, dated 2026).
Starred links: 1 amine or outer side, 2 acyl side, 3 side chain; linkers in the order of their positions; H or OH if unused. Non-standard residues stand in square brackets, D forms with d. Groups on a side chain read outwards from the residue. No end group written: not given here. *: point of attachment. Trp(5-Br) = N[C@@H](Cc1c[nH]c2ccc(Br)cc12)C(=O)O; Bip = N[C@@H](Cc1ccc(-c2ccccc2)cc1)C(=O)O; C18 diacid = O=C(O)CCCCCCCCCCCCCCCCC(=O)*; γGlu = O=C(O)[C@H](CCC(=O)[*:2])N[*:1]; αMeF = C[C@](N)(Cc1ccccc1)C(=O)O; AEEA = NCCOCCOCC(=O)O; Aib = CC(C)(N)C(=O)O

B1: Peptide 430 (peptide)
peptide: H[Aib]QGTFTSDVSK[αMeF]LDSK([AEEA-AEEA-γGlu-γGlu-C18 diacid])RAQDFVRWLEA[Aib]G-NH2
modifications: N-terminus assumed
SMILES: CC(C)C[C@H](NC(=O)[C@H](Cc1c[nH]c2ccccc12)NC(=O)[C@H](CCCNC(=N)N)NC(=O)[C@@H](NC(=O)[C@H](Cc1ccccc1)NC(=O)[C@H](CC(=O)O)NC(=O)[C@H](CCC(N)=O)NC(=O)[C@H](C)NC(=O)[C@H](CCCNC(=N)N)NC(=O)[C@H](CCCCNC(=O)COCCOCCNC(=O)COCCOCCNC(=O)CC[C@H](NC(=O)CC[C@H](NC(=O)CCCCCCCCCCCCCCCCC(=O)O)C(=O)O)C(=O)O)NC(=O)[C@H](CO)NC(=O)[C@H](CC(=O)O)NC(=O)[C@H](CC(C)C)NC(=O)[C@](C)(Cc1ccccc1)NC(=O)[C@H](CCCCN)NC(=O)[C@H](CO)NC(=O)[C@@H](NC(=O)[C@H](CC(=O)O)NC(=O)[C@H](CO)NC(=O)[C@@H](NC(=O)[C@H](Cc1ccccc1)NC(=O)[C@@H](NC(=O)CNC(=O)[C@H](CCC(N)=O)NC(=O)C(C)(C)NC(=O)[C@@H](N)Cc1c[nH]cn1)[C@@H](C)O)[C@@H](C)O)C(C)C)C(C)C)C(=O)N[C@@H](CCC(=O)O)C(=O)N[C@@H](C)C(=O)NC(C)(C)C(=O)NCC(N)=O
B2: Peptide 434 (peptide)
peptide: H[Aib]QGTFTSDVSK[αMeF]LDSK([AEEA-AEEA-γGlu-C18 diacid])RAQDFVR[Trp(5-Br)]LL[Aib]E-OH
modifications: N-terminus assumed
SMILES: CC(C)C[C@H](NC(=O)[C@H](Cc1c[nH]c2ccc(Br)cc12)NC(=O)[C@H](CCCNC(=N)N)NC(=O)[C@@H](NC(=O)[C@H](Cc1ccccc1)NC(=O)[C@H](CC(=O)O)NC(=O)[C@H](CCC(N)=O)NC(=O)[C@H](C)NC(=O)[C@H](CCCNC(=N)N)NC(=O)[C@H](CCCCNC(=O)COCCOCCNC(=O)COCCOCCNC(=O)CC[C@H](NC(=O)CCCCCCCCCCCCCCCCC(=O)O)C(=O)O)NC(=O)[C@H](CO)NC(=O)[C@H](CC(=O)O)NC(=O)[C@H](CC(C)C)NC(=O)[C@](C)(Cc1ccccc1)NC(=O)[C@H](CCCCN)NC(=O)[C@H](CO)NC(=O)[C@@H](NC(=O)[C@H](CC(=O)O)NC(=O)[C@H](CO)NC(=O)[C@@H](NC(=O)[C@H](Cc1ccccc1)NC(=O)[C@@H](NC(=O)CNC(=O)[C@H](CCC(N)=O)NC(=O)C(C)(C)NC(=O)[C@@H](N)Cc1c[nH]cn1)[C@@H](C)O)[C@@H](C)O)C(C)C)C(C)C)C(=O)N[C@@H](CC(C)C)C(=O)NC(C)(C)C(=O)N[C@@H](CCC(=O)O)C(=O)O
B3: Peptide 431 (peptide)
peptide: H[Aib]QGTFTSDVSK[αMeF]LDTK([AEEA-AEEA-γGlu-γGlu-C18 diacid])RAQDFVAWLEA[Aib]G-NH2
modifications: N-terminus assumed
SMILES: CC(C)C[C@H](NC(=O)[C@H](Cc1c[nH]c2ccccc12)NC(=O)[C@H](C)NC(=O)[C@@H](NC(=O)[C@H](Cc1ccccc1)NC(=O)[C@H](CC(=O)O)NC(=O)[C@H](CCC(N)=O)NC(=O)[C@H](C)NC(=O)[C@H](CCCNC(=N)N)NC(=O)[C@H](CCCCNC(=O)COCCOCCNC(=O)COCCOCCNC(=O)CC[C@H](NC(=O)CC[C@H](NC(=O)CCCCCCCCCCCCCCCCC(=O)O)C(=O)O)C(=O)O)NC(=O)[C@@H](NC(=O)[C@H](CC(=O)O)NC(=O)[C@H](CC(C)C)NC(=O)[C@](C)(Cc1ccccc1)NC(=O)[C@H](CCCCN)NC(=O)[C@H](CO)NC(=O)[C@@H](NC(=O)[C@H](CC(=O)O)NC(=O)[C@H](CO)NC(=O)[C@@H](NC(=O)[C@H](Cc1ccccc1)NC(=O)[C@@H](NC(=O)CNC(=O)[C@H](CCC(N)=O)NC(=O)C(C)(C)NC(=O)[C@@H](N)Cc1c[nH]cn1)[C@@H](C)O)[C@@H](C)O)C(C)C)[C@@H](C)O)C(C)C)C(=O)N[C@@H](CCC(=O)O)C(=O)N[C@@H](C)C(=O)NC(C)(C)C(=O)NCC(N)=O
B4: Peptide 432 (peptide)
peptide: H[Aib]QGTFTSDVSK[αMeF]LDSK([AEEA-AEEA-γGlu-C18 diacid])RAQDFVR[Bip]LL[Aib]E-OH
modifications: N-terminus assumed
SMILES: CC(C)C[C@H](NC(=O)[C@H](Cc1ccc(-c2ccccc2)cc1)NC(=O)[C@H](CCCNC(=N)N)NC(=O)[C@@H](NC(=O)[C@H](Cc1ccccc1)NC(=O)[C@H](CC(=O)O)NC(=O)[C@H](CCC(N)=O)NC(=O)[C@H](C)NC(=O)[C@H](CCCNC(=N)N)NC(=O)[C@H](CCCCNC(=O)COCCOCCNC(=O)COCCOCCNC(=O)CC[C@H](NC(=O)CCCCCCCCCCCCCCCCC(=O)O)C(=O)O)NC(=O)[C@H](CO)NC(=O)[C@H](CC(=O)O)NC(=O)[C@H](CC(C)C)NC(=O)[C@](C)(Cc1ccccc1)NC(=O)[C@H](CCCCN)NC(=O)[C@H](CO)NC(=O)[C@@H](NC(=O)[C@H](CC(=O)O)NC(=O)[C@H](CO)NC(=O)[C@@H](NC(=O)[C@H](Cc1ccccc1)NC(=O)[C@@H](NC(=O)CNC(=O)[C@H](CCC(N)=O)NC(=O)C(C)(C)NC(=O)[C@@H](N)Cc1c[nH]cn1)[C@@H](C)O)[C@@H](C)O)C(C)C)C(C)C)C(=O)N[C@@H](CC(C)C)C(=O)NC(C)(C)C(=O)N[C@@H](CCC(=O)O)C(=O)O
B5: Peptide 429 (peptide)
peptide: H[Aib]QGTFTSDVSK[αMeF]LDSK([AEEA-AEEA-γGlu-C18 diacid])RAQDFVRWLEA[Aib]G-NH2
modifications: N-terminus assumed
SMILES: CC(C)C[C@H](NC(=O)[C@H](Cc1c[nH]c2ccccc12)NC(=O)[C@H](CCCNC(=N)N)NC(=O)[C@@H](NC(=O)[C@H](Cc1ccccc1)NC(=O)[C@H](CC(=O)O)NC(=O)[C@H](CCC(N)=O)NC(=O)[C@H](C)NC(=O)[C@H](CCCNC(=N)N)NC(=O)[C@H](CCCCNC(=O)COCCOCCNC(=O)COCCOCCNC(=O)CC[C@H](NC(=O)CCCCCCCCCCCCCCCCC(=O)O)C(=O)O)NC(=O)[C@H](CO)NC(=O)[C@H](CC(=O)O)NC(=O)[C@H](CC(C)C)NC(=O)[C@](C)(Cc1ccccc1)NC(=O)[C@H](CCCCN)NC(=O)[C@H](CO)NC(=O)[C@@H](NC(=O)[C@H](CC(=O)O)NC(=O)[C@H](CO)NC(=O)[C@@H](NC(=O)[C@H](Cc1ccccc1)NC(=O)[C@@H](NC(=O)CNC(=O)[C@H](CCC(N)=O)NC(=O)C(C)(C)NC(=O)[C@@H](N)Cc1c[nH]cn1)[C@@H](C)O)[C@@H](C)O)C(C)C)C(C)C)C(=O)N[C@@H](CCC(=O)O)C(=O)N[C@@H](C)C(=O)NC(C)(C)C(=O)NCC(N)=O
B6: Peptide 435 (peptide)
peptide: H[Aib]QGTFTSDVSK[αMeF]LDTK([AEEA-AEEA-γGlu-C18 diacid])RARDFVQ[Aib]LLE[Aib]G-OH
modifications: N-terminus assumed
SMILES: CC(C)C[C@H](NC(=O)[C@H](CC(C)C)NC(=O)C(C)(C)NC(=O)[C@H](CCC(N)=O)NC(=O)[C@@H](NC(=O)[C@H](Cc1ccccc1)NC(=O)[C@H](CC(=O)O)NC(=O)[C@H](CCCNC(=N)N)NC(=O)[C@H](C)NC(=O)[C@H](CCCNC(=N)N)NC(=O)[C@H](CCCCNC(=O)COCCOCCNC(=O)COCCOCCNC(=O)CC[C@H](NC(=O)CCCCCCCCCCCCCCCCC(=O)O)C(=O)O)NC(=O)[C@@H](NC(=O)[C@H](CC(=O)O)NC(=O)[C@H](CC(C)C)NC(=O)[C@](C)(Cc1ccccc1)NC(=O)[C@H](CCCCN)NC(=O)[C@H](CO)NC(=O)[C@@H](NC(=O)[C@H](CC(=O)O)NC(=O)[C@H](CO)NC(=O)[C@@H](NC(=O)[C@H](Cc1ccccc1)NC(=O)[C@@H](NC(=O)CNC(=O)[C@H](CCC(N)=O)NC(=O)C(C)(C)NC(=O)[C@@H](N)Cc1c[nH]cn1)[C@@H](C)O)[C@@H](C)O)C(C)C)[C@@H](C)O)C(C)C)C(=O)N[C@@H](CCC(=O)O)C(=O)NC(C)(C)C(=O)NCC(=O)O
B7: Peptide 436 (peptide)
peptide: H[Aib]QGTFTSDVSK[αMeF]LDRK([AEEA-AEEA-γGlu-C18 diacid])RAQDFVRWLV[Aib]E-NH2
modifications: N-terminus assumed
SMILES: CC(C)C[C@H](NC(=O)[C@H](Cc1c[nH]c2ccccc12)NC(=O)[C@H](CCCNC(=N)N)NC(=O)[C@@H](NC(=O)[C@H](Cc1ccccc1)NC(=O)[C@H](CC(=O)O)NC(=O)[C@H](CCC(N)=O)NC(=O)[C@H](C)NC(=O)[C@H](CCCNC(=N)N)NC(=O)[C@H](CCCCNC(=O)COCCOCCNC(=O)COCCOCCNC(=O)CC[C@H](NC(=O)CCCCCCCCCCCCCCCCC(=O)O)C(=O)O)NC(=O)[C@H](CCCNC(=N)N)NC(=O)[C@H](CC(=O)O)NC(=O)[C@H](CC(C)C)NC(=O)[C@](C)(Cc1ccccc1)NC(=O)[C@H](CCCCN)NC(=O)[C@H](CO)NC(=O)[C@@H](NC(=O)[C@H](CC(=O)O)NC(=O)[C@H](CO)NC(=O)[C@@H](NC(=O)[C@H](Cc1ccccc1)NC(=O)[C@@H](NC(=O)CNC(=O)[C@H](CCC(N)=O)NC(=O)C(C)(C)NC(=O)[C@@H](N)Cc1c[nH]cn1)[C@@H](C)O)[C@@H](C)O)C(C)C)C(C)C)C(=O)N[C@H](C(=O)NC(C)(C)C(=O)N[C@@H](CCC(=O)O)C(N)=O)C(C)C

These binders were tested against human GLP-1 receptor (human, UniProt P43220) (assay: cell-based or functional assay).

cAMP production EC50 [nM]	Binder
0.0244	B1
0.153	B2
0.0446	B3
1.38	B4
0.015	B5
0.0227	B6
0.00743	B7

The binders below were run against human glucagon receptor (human, UniProt P47871) (assay: cell-based or functional assay).

cAMP production EC50 [nM]	Binder
0.16	B1
0.294	B2
0.194	B3
1.16	B4
0.144	B5
0.24	B6
0.0688	B7
